Results as given in patent publication US20240343811A1 (SHANDONG SIMCERE BIOPHARMACUTICAL, published 2024).

Tests used:
Assay in all cases: FACS on FlpinCHO cells
[1] = biological target: T1, human CD16b (NA2), full length, on FlpinCHO cells (human, UniProt O75015 17-200)
T1 construct: also called FlpinCHO-human CD16b (NA2)
T1 chain: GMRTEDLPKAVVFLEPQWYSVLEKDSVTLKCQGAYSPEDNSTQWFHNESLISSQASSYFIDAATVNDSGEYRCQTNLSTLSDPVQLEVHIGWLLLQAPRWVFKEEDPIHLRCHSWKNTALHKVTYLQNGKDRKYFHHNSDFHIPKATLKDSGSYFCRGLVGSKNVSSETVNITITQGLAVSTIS

[2] = biological target: T2, cynomolgus monkey CD16, full length, on FlpinCHO cells (cynomolgus monkey, UniProt Q8SPW2 17-254)
T2 construct: also called FlpinCHO-cyno CD16; Flipin CHO-cyno CD16
T2 sequence (Q8SPW2 other isoform, or with tags, fused parts or gaps limits assumed): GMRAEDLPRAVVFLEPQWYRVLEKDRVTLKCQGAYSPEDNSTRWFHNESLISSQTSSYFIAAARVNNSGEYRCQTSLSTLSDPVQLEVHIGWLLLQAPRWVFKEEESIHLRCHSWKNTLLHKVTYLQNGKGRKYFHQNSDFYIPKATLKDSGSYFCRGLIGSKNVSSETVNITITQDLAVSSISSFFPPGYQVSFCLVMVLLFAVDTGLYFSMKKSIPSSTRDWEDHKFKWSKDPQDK

[3] = biological target: T3, human CD16a (158V), full length, on cells (human, UniProt P08637 17-254)
T3 construct: also used as target for the bought Jurkat-NFAT reporter line stably expressing human CD16a (158V); also called FlpinCHO-human CD16a (158V); FlpinCHO-CD16a (158V)

[4] = biological target: T4, human CD16b (NA1), full length, on FlpinCHO cells (human, UniProt O75015 17-200)
T4 construct: also called FlpinCHO-human CD16b (NA1)
T4 chain: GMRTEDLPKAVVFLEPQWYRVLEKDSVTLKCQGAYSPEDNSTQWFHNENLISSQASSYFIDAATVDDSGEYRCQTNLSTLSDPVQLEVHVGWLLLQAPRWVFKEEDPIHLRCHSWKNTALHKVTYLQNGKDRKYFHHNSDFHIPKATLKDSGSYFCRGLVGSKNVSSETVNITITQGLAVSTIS

[5] = biological target: human CD16a (158F), full length, on FlpinCHO cells (human, UniProt P08637 17-254)

Mean fluorescence intensity [1]: 24800
Mean fluorescence intensity [2]: 5500
Mean fluorescence intensity [3]: 5870
Mean fluorescence intensity [4]: 28100
Mean fluorescence intensity [5]: 3080
B1: 3G8 antibody as used to check the stably transfected cell lines (Example 1.3) (antibody, V domains shown)
VH: QVTLKESGPGILQPSQTLSLTCSFSGFSLRTSGMGVGWIRQPSGKGLEWLAHIWWDDDKRYNPALKSRLTISKDTSSNQVFLKIASVDTADTATYYCAQINPAWFAYWGQGTLVTVSA
VL: DTVLTQSPASLAVSLGQRATISCKASQSVDFDGDSFMNWYQQKPGQPPKLLIYTTSNLESGIPARFSASGSGTDFTLNIHPVEEEDTATYYCQQSNEDPYTFGGGTKLEIK
notes: also called CD16 antibody
